# Values joined by “and” are separate entries in the source; they are usually repeats but may differ in a detail not shown here. Identical values can stand only once.
# Experiments:
# [1] = biological target: T1, human plasma derived FXIa (human, UniProt P03951 19-625); experiment: cell-based or functional assay
# [2] = biological target: T1, human plasma derived FXIa; experiment: cell-based or functional assay; remark: listed apart in the source
# [3] = biological target: human kallikrein (human, UniProt P03952 20-638); experiment: direct ELISA, panel 'Human Kallikrein': antigen coated on the plate, IgG titrated, fluorescence (RFU)
# Procedure: (§1) For direct coating ELISAs, antigens were immobilized on 384-well Maxisorp™ microtiter plates over night at 4° C. using the concentrations as shown in Table 5. After blocking with 5% skim milk powder in PBS (80 μl/well), 20 μl/well of Fab-containing E. coli lysates or purified antibodies at various concentrations (typically 12 points of a 1:3 titration starting at 200 nM IgG or Fab, respectively) were added to plates and incubated for 1 h at room temperature. […] Fluorescence emission at 535 nm was recorded with excitation at 430 nm. Multiple wash steps with PBS+0.05% Tween20 were performed in between individual assay steps.
# [4] = biological target: human pre-kallikrein (human, UniProt P03952 20-638); experiment: direct ELISA, panel 'Human Pre-kallikrein': antigen coated on the plate, IgG titrated, fluorescence (RFU)
# Procedure: as §1
# [5] = biological target: rabbit FXI (rabbit); experiment: direct ELISA, panel 'Rabbit FXI': antigen coated on the plate, IgG titrated, AP-anti-human F(ab)2 and AttoPhos fluorescence (RFU); half-maximal binding concentration of the fit, headed 'IC50' in the drawn table; unit taken from the axis 'Conc. [nM]'
# Procedure: as §1
# [6] = biological target: T2, human plasma-derived FXI (human, UniProt P03951 19-625); experiment: direct ELISA, panel 'Human plasma FXI': antigen coated on the plate, IgG titrated, AP-anti-human F(ab)2 and AttoPhos fluorescence (RFU); half-maximal binding concentration of the fit, headed 'IC50' in the drawn table; unit taken from the axis 'Conc. [nM]'
# T2 construct: This is the zymogen, which has two chains; also called human FXI; Factor XI
# Procedure: as §1
# [7] = biological target: T1, human plasma derived FXIa; experiment: direct ELISA, panel 'Human plasma FXIa': antigen coated on the plate, IgG titrated, AP-anti-human F(ab)2 and AttoPhos fluorescence (RFU); half-maximal binding concentration of the fit, headed 'IC50' in the drawn table; unit taken from the axis 'Conc. [nM]'
# Procedure: as §1
# [8] = biological target: cynomolgus monkey FXI (cynomolgus monkey); experiment: direct ELISA, panel 'Cynomolgus monkey FXI': antigen coated on the plate, IgG titrated, AP-anti-human F(ab)2 and AttoPhos fluorescence (RFU); half-maximal binding concentration of the fit, headed 'IC50' in the drawn table; unit taken from the axis 'Conc. [nM]'
# Procedure: as §1
# [9] = biological target: T1, human plasma derived FXIa; experiment: solution equilibrium titration (SET), ECL read-out, purified Fab at 500 pM with titrated hFXIa; ± is the 95% confidence interval of the fit
# Procedure: (§2) Experiments were carried out in polypropylene microtiter plates and with PBS (GIBCO 14190, pH 7.0-7.2) containing 0.5% BSA and 0.02% Tween20 as assay buffer. Serial dilutions of unlabeled FXIa antigen were prepared, starting with a concentration at least 10 times higher than the expected KD. Wells without antigen were used to determine Bₘₐₓ values; wells containing only assay buffer were used to determine background. After addition of an appropriate amount of binder (antibody concentration similar to or below the expected KD, 60 μL final volume), the mixture was incubated over night at RT.
# (§3) MSD plates were coated with 1 μg/mL human plasma derived FXIa (30 μL per well). After washing the plate with PBS containing 0.05% Tween 20, the equilibrated samples were transferred to the plates and incubated for 20 min. Following incubation, 30 μL per well of the MSD-Sulfo-tag labeled detection antibody (anti-Flag M2 (Sigma) 1:2,000) was added to the washed MSD plate and incubated for 30 min at RT on an Eppendorf shaker (700 rpm).
# After washing the MSD plate and adding 30 μL/well MSD Read Buffer T with surfactant, electrochemiluminescence signals were detected using a Sector Imager 6000 (Meso Scale Discovery, Gaithersburg, Md., USA).
# [10] = biological target: T1, human plasma derived FXIa; experiment: solution equilibrium titration (SET), IgG at 20 pM, 1:1 binding model
# Procedure: as §2, §3
# The SET method described in Example 2 was used to determine the KD for AM4 (IgG), and compared to NOV1401, the germlined version of its parental antibody NOV1090.
# [11] = biological target: T1, human plasma derived FXIa; experiment: SET screening compared with SET KD of NOV1090 Fab
# [12] = biological target: T1, human plasma derived FXIa; experiment: SET KD estimates of Fabs compared with SET KD of NOV1090 Fab
# [13] = biological target: T1, human plasma derived FXIa; experiment: SET screening, KD estimate from 5 data points, unpurified Fab in bacterial lysate; ± is the 95% confidence interval of the fit
# Source text: To estimate Fab KDs, bacterial lysates were screened by SET. The SET screening method (see, e.g., Della Ducata et al (2015) J Biomol Screen; 20(10):1256-67) was generally performed as described above for the SET determination method. For ranking of the matured binders by SET based on the principles described by Haenel and coworkers (Haenel et al (2005) Anal Biochem; 339(1):182-4), a constant amount of diluted BEL extract (bacterial lysate) was equilibrated over night with different concentrations of antigen.
# The mixture was then transferred to MSD plates, which were previously coated with antigen (1 μg/mL human plasma FXIa), and after incubation and washing, a suitable MSD-Sulfo-tag labeled detection antibody was added (anti-Flag M2, Sigma).
# [14] = biological target: T1, human plasma derived FXIa; experiment: method not stated in the sentence (compared with the SET KD of NOV1090 Fab); NOV1401 Fab, cited for comparison with the SET KD of NOV1090 Fab
# [15] = biological target: T1, human plasma derived FXIa; experiment: direct ELISA, panel 'Human plasma FXIa': antigen coated on the plate, IgG titrated, AP-anti-human F(ab)2 and AttoPhos fluorescence (RFU); the printed IC50 cell of this row is under recheck
# Procedure: as §1
# T2 sequence (P03951 19-625 C226S limits assumed): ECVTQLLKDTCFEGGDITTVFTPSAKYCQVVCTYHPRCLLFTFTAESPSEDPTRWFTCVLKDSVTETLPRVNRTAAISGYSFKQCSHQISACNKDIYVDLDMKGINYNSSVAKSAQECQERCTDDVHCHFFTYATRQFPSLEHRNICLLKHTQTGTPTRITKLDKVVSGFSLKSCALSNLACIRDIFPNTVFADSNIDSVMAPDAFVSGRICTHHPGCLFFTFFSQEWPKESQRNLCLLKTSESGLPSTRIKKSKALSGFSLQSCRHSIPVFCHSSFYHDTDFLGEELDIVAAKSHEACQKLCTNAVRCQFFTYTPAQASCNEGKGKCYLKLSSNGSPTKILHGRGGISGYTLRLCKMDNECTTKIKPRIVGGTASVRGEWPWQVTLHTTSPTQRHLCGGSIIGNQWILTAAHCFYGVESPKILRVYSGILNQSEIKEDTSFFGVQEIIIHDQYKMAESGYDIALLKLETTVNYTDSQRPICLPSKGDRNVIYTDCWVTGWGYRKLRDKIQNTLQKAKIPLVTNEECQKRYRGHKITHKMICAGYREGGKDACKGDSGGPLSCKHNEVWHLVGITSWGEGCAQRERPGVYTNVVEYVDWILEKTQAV
# T1 sequence (P03951 19-625 C226S limits assumed): as above
# Chain of human pre-kallikrein (P03952 20-638 limits assumed): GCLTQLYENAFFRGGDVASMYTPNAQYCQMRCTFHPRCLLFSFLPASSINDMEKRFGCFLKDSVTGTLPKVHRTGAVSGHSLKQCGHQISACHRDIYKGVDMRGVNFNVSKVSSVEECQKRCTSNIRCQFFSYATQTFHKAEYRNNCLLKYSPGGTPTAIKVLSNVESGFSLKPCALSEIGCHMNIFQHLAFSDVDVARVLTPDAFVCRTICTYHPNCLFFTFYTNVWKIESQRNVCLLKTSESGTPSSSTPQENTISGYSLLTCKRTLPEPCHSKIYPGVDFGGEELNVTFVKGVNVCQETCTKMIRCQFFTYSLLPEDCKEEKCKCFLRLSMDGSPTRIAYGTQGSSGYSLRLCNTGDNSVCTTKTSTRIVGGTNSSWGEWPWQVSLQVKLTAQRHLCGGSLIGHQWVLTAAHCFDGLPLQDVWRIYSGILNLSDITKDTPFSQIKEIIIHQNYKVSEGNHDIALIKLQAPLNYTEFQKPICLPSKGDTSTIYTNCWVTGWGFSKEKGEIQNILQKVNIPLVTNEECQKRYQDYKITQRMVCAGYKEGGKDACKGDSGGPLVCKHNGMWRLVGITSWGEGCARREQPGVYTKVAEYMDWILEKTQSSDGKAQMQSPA
# Chain of human kallikrein (P03952 20-638 limits assumed): as above
# Chain of cynomolgus monkey FXI (cynomolgus monkey) (P03951 other isoform, or with tags, fused parts or gaps): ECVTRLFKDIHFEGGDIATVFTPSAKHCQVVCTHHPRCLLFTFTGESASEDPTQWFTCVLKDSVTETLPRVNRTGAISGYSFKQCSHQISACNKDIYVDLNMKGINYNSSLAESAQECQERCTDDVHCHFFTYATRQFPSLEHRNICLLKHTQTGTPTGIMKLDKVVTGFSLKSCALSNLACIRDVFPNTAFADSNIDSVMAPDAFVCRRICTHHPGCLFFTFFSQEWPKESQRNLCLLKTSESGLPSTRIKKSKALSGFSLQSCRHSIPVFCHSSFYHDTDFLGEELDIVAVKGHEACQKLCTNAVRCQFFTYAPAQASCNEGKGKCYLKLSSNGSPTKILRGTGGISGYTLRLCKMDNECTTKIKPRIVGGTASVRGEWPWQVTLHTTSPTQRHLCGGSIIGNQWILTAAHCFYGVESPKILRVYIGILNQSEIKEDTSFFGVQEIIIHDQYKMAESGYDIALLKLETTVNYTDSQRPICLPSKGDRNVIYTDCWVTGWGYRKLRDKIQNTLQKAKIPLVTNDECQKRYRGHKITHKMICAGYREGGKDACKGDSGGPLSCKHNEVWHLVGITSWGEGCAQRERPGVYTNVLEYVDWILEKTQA
Binder,TGA IC50 [2] [nM],TGA Residual Thrombin [nM] (%) [2],binding result [3],binding result [4],IC50 [5] [nM],IC50 [6] [nM],IC50 [8] [nM],fold lower KD than NOV1090 Fab [11] [fold],fold increase in affinity over NOV1090 Fab [12] [fold],Kd [13] [nM],other results
"AM1 (IgG) (antibody, V domains shown) VH: QVQLLESGGGLVQPGGSLRLSCAASGFTFSTAAMSWVRQAPGKGLEWVSTIDSWGDDTDYADSVKGRFTISRDNSKNTLYLQMNSLRAEDTAVYYCARELSYLYSGYYFDYWGQGTLVTVSS VL: DIVLTQPPSVSGAPGQRVTISCSGSSSNIGSNDVSWYQQLPGTAPKLLIYKNYNRPSGVPDRFSGSKSGTSASLAITGLQAEDEADYYCSAWDQRQFDVVFGGGTKLTVLG",6,180 nM and 37.5%,no binding (tested: about 200 nM),no binding (tested: about 200 nM),0.463,0.215,0.448,,,,"TGA IC50, fold lower compared to NOV1401 [1]: ~4 fold; IC50 [7]: 0.274 nM"
"NOV1090 Fab (Fab, V domains shown, Purified HuCAL Fab, at least 90% monomer; It was detected with anti-Flag M2, so it carries a Flag tag; also called anti-FXI/FXIa Fab; parental NOV1090 Fab fragment) VH: QVQLLESGGGLVQPGGSLRLSCAASGFTFSTAAMSWVRQAPGKGLEWVSGISGSGSSTYYADSVKGRFTISRDNSKNTLYLQMNSLRAEDTAVYYCARELSYLYSGYYFDYWGQGTLVTVSS VL: DIVLTQPPSVSGAPGQRVTISCSGSSSNIGSNDVSWYQQLPGTAPKLLIYKNYNRPSGVPDRFSGSKSGTSASLAITGLQAEDEADYYCSAWDQRQFDVVFGGGTKLTVL",,,,,,,,,,,Kd [9]: 0.21 nM
"AM2 Fab (Fab, V domains shown, Unpurified Fab in bacterial lysate (BEL extract), used in SET screening) VH: QVQLLESGGGLVQPGGSLRLSCAASGFTFSTAAMSWVRQAPGKGLEWVSSIEYYDTDTHYADSVKGRFTISRDNSKNTLYLQMNSLRAEDTAVYYCARELSYLYSGYYFDYWGQGTLVTVSS VL: DIVLTQPPSVSGAPGQRVTISCSGSSSNIGSNDVSWYQQLPGTAPKLLIYKNYNRPSGVPDRFSGSKSGTSASLAITGLQAEDEADYYCSAWDQRQFDVVFGGGTKLTVL",,,,,,,,~7,~10,0.027,
"AM1 Fab (Fab, V domains shown, Unpurified Fab in bacterial lysate (BEL extract), used in SET screening) VH: QVQLLESGGGLVQPGGSLRLSCAASGFTFSTAAMSWVRQAPGKGLEWVSTIDSWGDDTDYADSVKGRFTISRDNSKNTLYLQMNSLRAEDTAVYYCARELSYLYSGYYFDYWGQGTLVTVSS VL: DIVLTQPPSVSGAPGQRVTISCSGSSSNIGSNDVSWYQQLPGTAPKLLIYKNYNRPSGVPDRFSGSKSGTSASLAITGLQAEDEADYYCSAWDQRQFDVVFGGGTKLTVL",,,,,,,,~7,~10,0.032,
"NOV1401 Fab (Fab, V domains shown, Fab of NOV1401, the germlined version of NOV1090 with identical CDRs) VH: QVQLLESGGGLVQPGGSLRLSCAASGFTFSTAAMSWVRQAPGKGLEWVSGISGSGSSTYYADSVKGRFTISRDNSKNTLYLQMNSLRAEDTAVYYCARELSYLYSGYYFDYWGQGTLVTVSS VL: QSVLTQPPSASGTPGQRVTISCSGSSSNIGSNDVSWYQQLPGTAPKLLIYKNYNRPSGVPDRFSGSKSGTSASLAISGLQSEDEADYYCSAWDQRQFDVVFGGGTKLTVL",,,,,,,,,,,Kd [14]: 0.305 nM
"AM2 (IgG) (antibody, V domains shown) VH: QVQLLESGGGLVQPGGSLRLSCAASGFTFSTAAMSWVRQAPGKGLEWVSSIEYYDTDTHYADSVKGRFTISRDNSKNTLYLQMNSLRAEDTAVYYCARELSYLYSGYYFDYWGQGTLVTVSS VL: DIVLTQPPSVSGAPGQRVTISCSGSSSNIGSNDVSWYQQLPGTAPKLLIYKNYNRPSGVPDRFSGSKSGTSASLAITGLQAEDEADYYCSAWDQRQFDVVFGGGTKLTVLG",7,186 nM and 36.6%,no binding (tested: about 200 nM),no binding (tested: about 200 nM),0.432,0.331,0.399,,,,IC50 [7]: 0.466 nM

# Now from value to binder, other results behind:
TGA IC50 [2] [nM],TGA Residual Thrombin [nM] (%) [2],binding result [3],binding result [4],IC50 [5] [nM],IC50 [6] [nM],IC50 [8] [nM],fold lower KD than NOV1090 Fab [11] [fold],fold increase in affinity over NOV1090 Fab [12] [fold],Kd [13] [nM],Binder,other results
24,159 nM and 34.4%,,,,,,,,,"NOV1401 (IgG) (antibody, V domains shown, Germlined version of NOV1090, human IgG1/lambda with D265A and P329A in the Fc) VH: QVQLLESGGGLVQPGGSLRLSCAASGFTFSTAAMSWVRQAPGKGLEWVSGISGSGSSTYYADSVKGRFTISRDNSKNTLYLQMNSLRAEDTAVYYCARELSYLYSGYYFDYWGQGTLVTVSS VL: QSVLTQPPSASGTPGQRVTISCSGSSSNIGSNDVSWYQQLPGTAPKLLIYKNYNRPSGVPDRFSGSKSGTSASLAISGLQSEDEADYYCSAWDQRQFDVVFGGGTKLTVLG",Kd [10]: 0.00312 nM
,,,,,,,~7,~10,0.029,"AM3 Fab (Fab, V domains shown, Unpurified Fab in bacterial lysate (BEL extract), used in SET screening) VH: QVQLLESGGGLVQPGGSLRLSCAASGFTFSTAAMSWVRQAPGKGLEWVSTIEYSSQETYYADSVKGRFTISRDNSKNTLYLQMNSLRAEDTAVYYCARELSYLYSGYYFDYWGQGTLVTVSS VL: DIVLTQPPSVSGAPGQRVTISCSGSSSNIGSNDVSWYQQLPGTAPKLLIYKNYNRPSGVPDRFSGSKSGTSASLAITGLQAEDEADYYCSAWDQRQFDVVFGGGTKLTVL",
,,no binding (tested: about 200 nM),no binding (tested: about 200 nM),0.504,0.392,0.58,,,,"NOV1090 (IgG) (antibody, V domains shown, Non-germlined version of NOV1401, human IgG1/lambda; also called parental NOV1090; parental IgG) VH: QVQLLESGGGLVQPGGSLRLSCAASGFTFSTAAMSWVRQAPGKGLEWVSGISGSGSSTYYADSVKGRFTISRDNSKNTLYLQMNSLRAEDTAVYYCARELSYLYSGYYFDYWGQGTLVTVSS VL: DIVLTQPPSVSGAPGQRVTISCSGSSSNIGSNDVSWYQQLPGTAPKLLIYKNYNRPSGVPDRFSGSKSGTSASLAITGLQAEDEADYYCSAWDQRQFDVVFGGGTKLTVLG",EC50 (read off the curve) [15]: ~0.6 nM
